According to the supplement of paper PMC10724198:
± gives the standard deviation of the averaged measurements.

Assays:
[1] = tested on: Saccharomyces cerevisiae; assay: protein stability index of tFT-peptide fusion (C-terminal peptide) (PSI (0-1 scale)); higher = more stable (slower turnover)
Description: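 MPS profiling in S. cerevisiae of the tFT-X12 degron library: putative degron peptides plus stable controls, 12 aa, fused to the C-terminus of a sfGFP-mCherry timer. Cells are FACS-sorted into 8 mCherry/sfGFP bins and deep-sequenced. PSI runs from 0 (unstable) to 1 (stable). Backgrounds are wild type, das1Δ and doa10Δ at 30 °C, and wild type, das1Δ, cdc34-1 and cdc53-1 at 37 °C; 2-3 technical replicates each.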

[2] = tested on: Saccharomyces cerevisiae; assay: as above; details: genetic background: wild type; temperature: 30 C
[3] = genetic background: cdc34-1, temperature: 37 C
[4] = genetic background: cdc53-1, temperature: 37 C
[5] = genetic background: das1 deletion, temperature: 30 C
[6] = genetic background: das1 deletion, temperature: 37 C
[7] = genetic background: doa10 deletion, temperature: 30 C
[8] = genetic background: wild type, temperature: 30 C
[9] = genetic background: wild type, temperature: 37 C
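Also: PSI is a weighted mean of sequencing reads over stability bins, variants kept only with over 10 reads, mCherry proximal and sfGFP distal, peptide attached via GGGS linker.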

Sequence | protein stability index [1, 3] | protein stability index [1, 4] | protein stability index [1, 5] | protein stability index [1, 6] | protein stability index [1, 7] | protein stability index [1, 8] | protein stability index [1, 9] | protein stability index [2]
LEGRFLACRGIC | 0.619 ± 0.028 | 0.719 ± 0.048 | 0.598 ± 0.018 | 0.728 ± 0.02 | 0.144 ± 0.017 | 0.157 ± 0.011 | 0.325 ± 0.02 | 0.264 ± 0.04
LEVHGSCIFICV | 0.5422 ± 0.0046 | 0.5462 ± 0.0037 | 0.359 ± 0.039 | 0.5674 ± 0.0018 | 0.336 ± 0.041 | 0.374 ± 0.0092 | 0.492 ± 0.026 | 0.444 ± 0.017
LFAIFLVVLLFR | 0.106 ± 0.016 | 0.089 ± 0.0072 | 0.195 ± 0.03 | 0.273 ± 0.0081 | 0.297 ± 0.0092 | 0.201 ± 0.028 | 0.2089 ± 0.0002 | 0.219 ± 0.054
LFFPLPGILSFF | 0.76 ± 0.027 | 0.771 ± 0.022 | 0.631 ± 0.022 | 0.7783 ± 0.0029 | 0.484 ± 0.0073 | 0.498 ± 0.02 | 0.676 ± 0.033 | 0.523 ± 0.046
LFFWVLTVMFVW | 0.162 ± 0.025 | 0.23 ± 0.0048 | 0.224 ± 0.013 | 0.3199 ± 0.00034 | 0.222 ± 0.011 | 0.195 ± 0.015 | 0.283 ± 0.015 | 0.302 ± 0.046
LFGRVLSGILSV | 0.687 ± 0.04 | 0.721 ± 0.015 | 0.567 ± 0.019 | 0.702 ± 0.028 | 0.474 ± 0.014 | 0.524 ± 0.037 | 0.68 ± 0.011 | 0.523 ± 0.06
LFLLSHYALCFY | 0.523 ± 0.0055 | 0.53 ± 0.018 | 0.441 ± 0.018 | 0.593 ± 0.028 | 0.333 ± 0.0045 | 0.336 ± 0.017 | 0.527 ± 0.012 | 0.3967 ± 0.0035
LFLSFLLFVLAF | 0.434 ± 0.023 | 0.444 ± 0.015 | 0.319 ± 0.029 | 0.471 ± 0.036 | 0.302 ± 0.0039 | 0.312 ± 0.045 | 0.425 ± 0.0086 | 0.388 ± 0.042
LFLSIFFFHLLF | 0.314 ± 0.023 | 0.251 ± 0.049 | 0.338 ± 0.041 | 0.4359 ± 0.0036 | 0.439 ± 0.045 | 0.313 ± 0.01 | 0.385 ± 0.041 | 0.37 ± 0.033
LFPVFFPLFAPA | 0.285 ± 0.029 | 0.336 ± 0.035 | 0.266 ± 0.034 | 0.404 ± 0.018 | 0.206 ± 0.013 | 0.271 ± 0.018 | 0.36504 ± 0.00017 | 0.322 ± 0.03
LFSCTQLLPITA | 0.0614 ± 0.017 | 0.077 ± 0.012 | 0.173 ± 0.02 | 0.198 ± 0.0068 | 0.141 ± 0.013 | 0.176 ± 0.018 | 0.166 ± 0.0061 | 0.245 ± 0.032
LFSIFMSYRVYI | 0.35 ± 0.037 | 0.435 ± 0.021 | 0.383 ± 0.07 | 0.486 ± 0.017 | 0.302 ± 0.03 | 0.312 ± 0.0037 | 0.44 ± 0.031 | 0.411 ± 0.02
LFSTRRWISVCA | 0.0208 ± 0.0016 | 0.0362 ± 0.013 | 0.134 ± 0.035 | 0.127 ± 0.011 | 0.0486 ± 0.012 | 0.054 ± 0.0027 | 0.0577 ± 0.015 | 0.0789 ± 0.016
LFSVLVFIYFVM | 0.102 ± 0.032 | 0.113 ± 0.017 | 0.169 ± 0.034 | 0.288 ± 0.07 | 0.17 ± 0.016 | 0.133 ± 0.0054 | 0.217 ± 0.025 | 0.127 ± 0.022
LFTSGNSLVLVH | 0.21126 ± 0.00018 | 0.257 ± 0.02 | 0.236 ± 0.037 | 0.3909 ± 0.00093 | 0.202 ± 0.0086 | 0.25 ± 0.034 | 0.362 ± 0.0076 | 0.365 ± 0.0042
LFYVSFLFMLLF | 0.359 ± 0.084 | 0.34751 ± 0.00024 | 0.363 ± 0.036 | 0.459 ± 0.025 | 0.396 ± 0.0059 | 0.325 ± 0.013 | 0.447 ± 0.029 | 0.378 ± 0.01
LGALFGRFWWYF | 0.664 ± 0.024 | 0.7416 ± 0.0074 | 0.654 ± 0.01 | 0.795 ± 0.013 | 0.278 ± 0.012 | 0.291 ± 0.023 | 0.541 ± 0.016 | 0.42 ± 0.027
LGCLVWGGVWGV | 0.706 ± 0.04 | 0.7595 ± 0.00079 | 0.625 ± 0.0078 | 0.737 ± 0.025 | 0.628 ± 0.021 | 0.638 ± 0.016 | 0.727 ± 0.041 | 0.479 ± 0.019
LGFSHTRAIFFV | 0.651 ± 0.039 | 0.7312 ± 0.0055 | 0.605 ± 0.012 | 0.724 ± 0.0022 | 0.186 ± 0.01 | 0.213 ± 0.0094 | 0.396 ± 0.0071 | 0.307 ± 0.011
LGGCVSYINLLA | 0.592 ± 0.032 | 0.682 ± 0.018 | 0.594 ± 0.022 | 0.6997 ± 0.0013 | 0.197 ± 0.024 | 0.236 ± 0.015 | 0.3917 ± 0.0035 | 0.308 ± 0.026

Sequence | protein stability index [1, 3] | protein stability index [1, 4] | protein stability index [1, 5] | protein stability index [1, 6] | protein stability index [1, 7] | protein stability index [1, 8] | protein stability index [1, 9] | protein stability index [2]
LGRFHLACLLFL | 0.588 ± 0.013 | 0.61417 ± 0.00036 | 0.486 ± 0.028 | 0.6113 ± 0.004 | 0.41 ± 0.0065 | 0.412 ± 0.035 | 0.543 ± 0.014 | 0.43 ± 0.048
LGVLVVAFCGGC | 0.488 ± 0.041 | 0.554 ± 0.0076 | 0.354 ± 0.034 | 0.541 ± 0.0069 | 0.325 ± 0.017 | 0.347 ± 0.023 | 0.5327 ± 0.00083 | 0.409 ± 0.031
LIICRSFLCKVR | 0.236 ± 0.026 | 0.2557 ± 0.0016 | 0.193 ± 0.029 | 0.369 ± 0.0059 | 0.16 ± 0.0049 | 0.174 ± 0.023 | 0.317 ± 0.0052 | 0.3 ± 0.01
LILIVVVAGSVG | 0.201 ± 0.019 | 0.392 ± 0.088 | 0.226 ± 0.027 | 0.437 ± 0.0066 | 0.206 ± 0.014 | 0.23 ± 0.013 | 0.385 ± 0.015 | 0.269 ± 0.038
LIMIRLLYLRLI | 0.166 ± 0.15 | 0.153 ± 0.042 | 0.269 ± 0.029 | 0.365 ± 0.022 | 0.105 ± 0.017 | 0.0628 ± 0.033 | 0.102 ± 0.0037 | 0.102 ± 0.035
LINHSWLLLSVL | 0.368 ± 0.017 | 0.432 ± 0.036 | 0.363 ± 0.038 | 0.521 ± 0.026 | 0.14246 ± 3.7e-05 | 0.133 ± 0.018 | 0.1583 ± 0.00095 | 0.325 ± 0.035
LLCSLGFRFSLF | 0.651 ± 0.033 | 0.728 ± 0.011 | 0.651 ± 0.019 | 0.725 ± 0.019 | 0.289 ± 0.0056 | 0.328 ± 0.044 | 0.546 ± 0.038 | 0.377 ± 0.034
LLFGCLIRIGCS | 0.268 ± 0.017 | 0.307 ± 0.012 | 0.244 ± 0.048 | 0.403 ± 0.021 | 0.225 ± 0.0046 | 0.253 ± 0.03 | 0.3638 ± 0.00063 | 0.35 ± 0.051
LLILSVRPFVFV | 0.479 ± 0.0094 | 0.52 ± 0.0072 | 0.397 ± 0.032 | 0.544 ± 0.0068 | 0.3727 ± 0.0033 | 0.367 ± 0.025 | 0.515 ± 0.022 | 0.43 ± 0.0067
LLLALLFWPCPI | 0.5178 ± 0.0016 | 0.526 ± 0.0074 | 0.402 ± 0.028 | 0.559 ± 0.037 | 0.396 ± 0.024 | 0.39 ± 0.038 | 0.518 ± 0.021 | 0.473 ± 0.02
LLLIGISFLIFY | 0.184 ± 0.048 | 0.287 ± 0.0035 | 0.208 ± 0.029 | 0.385 ± 0.008 | 0.199 ± 0.025 | 0.21 ± 0.025 | 0.335 ± 0.052 | 0.352 ± 0.05
LLLTAIRVLRMH | 0.561 ± 0.016 | 0.7045 ± 0.0038 | 0.587 ± 0.021 | 0.7177 ± 0.0014 | 0.118 ± 0.0018 | 0.149 ± 0.037 | 0.217 ± 0.033 | 0.169 ± 0.056
LLLVCYSTFIVA | 0.287 ± 0.057 | 0.359 ± 0.045 | 0.254 ± 0.04 | 0.3813 ± 0.0031 | 0.251 ± 0.011 | 0.28 ± 0.014 | 0.364 ± 0.0041 | 0.313 ± 0.026
LLLVPLLAFSAS | 0.56 ± 0.054 | 0.63 ± 0.029 | 0.473 ± 0.034 | 0.6084 ± 0.0031 | 0.462 ± 0.027 | 0.46 ± 0.019 | 0.598 ± 0.015 | 0.521 ± 0.035
LLMFWLSIWFWG | 0.22 ± 0.0092 | 0.292 ± 0.0066 | 0.245 ± 0.047 | 0.374 ± 0.008 | 0.268 ± 0.023 | 0.233 ± 0.037 | 0.3551 ± 0.0028 | 0.32 ± 0.035
LLPYSLSLALRA | 0.395 ± 0.0049 | 0.391 ± 0.015 | 0.314 ± 0.048 | 0.468 ± 0.0073 | 0.2604 ± 0.0023 | 0.28 ± 0.027 | 0.429 ± 0.015 | 0.412 ± 0.0096
LLSFSQLGYFVL | 0.634 ± 0.056 | 0.716 ± 0.012 | 0.633 ± 0.034 | 0.738 ± 0.023 | 0.13 ± 0.0051 | 0.152 ± 0.039 | 0.335 ± 0.027 | 0.212 ± 0.04
LLSGHFRLLLAF | 0.0523 ± 0.014 | 0.149 ± 0.007 | 0.178 ± 0.02 | 0.23 ± 0.013 | 0.0793 ± 0.0067 | 0.0945 ± 0.014 | 0.108 ± 0.02 | 0.136 ± 0.029
LLVCLGYFLFLG | 0.37 ± 0.025 | 0.372 ± 0.031 | 0.313 ± 0.024 | 0.484 ± 0.055 | 0.338 ± 0.0061 | 0.288 ± 0.051 | 0.453 ± 0.022 | 0.403 ± 0.0091
